{"source": "paper PMC9282010", "about": "(Molecular Biology of the Cell, 2022)", "binders": {"B1": {"name": "Qa(JxR): Vam3 with the juxtamembrane region of Nyv1 and its own TM (other)", "chain": "MSFFDIEAQSSKGNSQQEPQFSTNQKTKELSNLIETFAEQSRVLEKECTKIGSKRDSKELRYKIETELIPNCTSVRDKIESNILIHQNGKLSADFKNLKTKYQSLQQSYNQRKSLFPLKTPISPGTSKERKDIHPRTEAVRQDPESSYISIKVNEQSPLLHNEGQHQLQLQEEQEQQQQGLSQEELDFQTIIHQERSQQIGRIHTAVQEVNAIFHQLGSLVKEQGEQVTTIDENISHLHDNMQNANKQLTRADEIMWWQKVKKVTLIIIIVVCMVVLLAVLS"}, "B2": {"name": "Vti1, the vacuolar Qb-SNARE (wild type, membrane-anchored) (natural protein)", "chain": "MSSLLISYESDFKTTLEQAKASLAEAPSQPLSQRNTTLKHVEQQQDELFDLLDQMDVEVNNSIGDASERATYKAKLREWKKTIQSDIKRPLQSLVDSGDRDRLFGDLNASNIDDDQRQQLLSNHAILQKSGDRLKDASRIANETEGIGSQIMMDLRSQRETLENARQTLFQADSYVDKSIKTLKTMTRRLVANKFISYAIIAVLILLILLVLFSKFK"}}, "assay_in_all_cases": "co-IP", "key": {"[1]": {"target": "B2"}, "[2]": {"target": "T1, Vam3, the vacuolar Qa-SNARE (wild type) (yeast, UniProt Q12241 1-283)", "T1 sequence": "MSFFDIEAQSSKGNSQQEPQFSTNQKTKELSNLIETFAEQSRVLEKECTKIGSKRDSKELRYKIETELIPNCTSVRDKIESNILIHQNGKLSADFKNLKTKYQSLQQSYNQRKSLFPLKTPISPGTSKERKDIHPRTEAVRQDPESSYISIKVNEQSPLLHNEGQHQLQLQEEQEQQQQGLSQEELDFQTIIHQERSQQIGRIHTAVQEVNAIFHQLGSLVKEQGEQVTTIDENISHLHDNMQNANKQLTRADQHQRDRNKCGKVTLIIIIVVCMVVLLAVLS"}, "[3]": {"target": "B1"}}, "data": [{"binder": "B1", "values": [{"measurement": "binding result", "setting": "[1]", "result": "binds"}]}, {"binder": "B2", "values": [{"measurement": "binding result", "setting": "[2]", "result": "binds"}]}, {"binder": "R(JxQa): Nyv1 with the juxtamembrane region of Vam3 and its own TM (other) MKRFNVSYVEVIKNGETISSCFQPFQKNENYGTITSANEQITPVIFHNLIMDMVLPKVVPIKGNKVTKMSMNLIDGFDCFYSTDDHDPKTVYVCFTLVDMPKILPIRILSGLQEYESNATNELLSSHVGQILDSFHEELVEYRNQTLNSSGNGQSSNGNGQNTISDIGDATEDQIKDVIQIMNDNIDKFLERQERVSLLVDKTSQLNSSSNKFRRKAVNIKQHQRDRNKCGNITLLTFTIILFVSAAFMFFYLW", "values": [{"measurement": "binding result", "setting": "[3]", "result": "binds"}]}]}
